Source: patent US20230227580A1, “ANTI-VWF ANTIBODIES AND USES THEREOF” (MONASH UNIVERSITY, priority 2020, published 2023)

Legend:
[1] = target: T1, full length VWF (Homo sapiens, UniProt P04275); experiment: ELISA binding to immobilized full length VWF; conditions: scFv A1 5 µg ml^-1; ristocetin 0.75 mg ml^-1
T1 construct: coated with purified full length VWF or isolated A1 domain
Method: ELISA wells (Thermo Fisher Scientific) were coated with purified full length VWF or isolated A1 domain at 0.1, 1 and 10 µg ml^-1 in the presence of ristocetin (0.75 mg ml^1) and blocked with 2% BSA. Next, the coated wells were incubated with 5 µg ml^-1 of scFv A1 or sheep anti-VWF antibody followed by incubation with an HRP-conjugated secondary antibody (Anti-his HRP for scFv A1, Donkey anti-sheep HRP antibody for sheep anti-VWF antibody) (1:4,000). Readings were measured at 450 nm on a BMG Optima multi-well reader.

[2] = target: T2, denatured full length VWF (Homo sapiens, UniProt P04275); experiment: Western blot of denatured VWF probed with scFv A1; format: binding; conditions: scFv A1 1 µg ml^-1; SDS-PAGE denatured VWF
T2 construct: Denatured full length VWF (Mybiosource, USA) was electrophoresed; purchased Mybiosource
Method: Denatured full length VWF (Mybiosource, USA) was electrophoresed at 0.1, 10, 100 ng and 1 µg using 5% SDS-Polyacrylamide gel at 125 V for 90 min. The protein was transferred onto PVDF membrane at 90V for 90 min followed by incubation with 1 µg ml^-1 scFv A1 overnight and the membrane was probed with horse-radish peroxidase (HRP)-conjugated detection antibody (1:2500, Sigma).
Later, the membrane was stripped and reprobed with 1 µg ml^-1 polyclonal sheep anti-VWF antibody (Abcam), followed by donkey anti-sheep HRP-conjugated secondary antibody (1:2500, R&D Systems, USA). Chemiluminescent detection of protein bands was done using ECL Western Blotting Substrate (ThermoFisher) and visualisation using a ChemiDoc Touch Imaging system (Bio-Rad, UK).

[3] = tested on: VWF-platelet interaction; experiment: Platelet-VWF adhesion on collagen III in stenotic microfluidic channels (SRG versus constant shear); format: cell-based, human
From the text: In-house designed PDMS microfluidic chips (FIG. 1A) contained channels of 52 µm height with a footprint of 300 µm x 46 mm (used in FIG. 1) or 300 µm x 17 mm. Selected channels incorporated a semi-circular stenotic section of various lengths (600 µm, 1000 µm or 2000 µm diameter), creating 80% lumen reduction. Chips were manufactured as previously reported (Westein et al. Proceedings of the National Academy of Sciences of the United States of America. 2013 Jan 22;110(4):1357-62). The produced PDMS chips were sealed with cover slips by hydrophobic interaction and coated with collagen by perfusion of collagen solution followed by static incubation at RT for at least 1 hr. Channels were rinsed with PBS and blocked with 2% BSA. Wall shear rates of the input flow for these microchannels were approximated from volumetric flow rates by using the equation, γ = 6Q/wh2. Herein, γ is the wall shear rate (s^-1), Q the volumetric flow rate (mls^-1), w the channel with (cm) and h the channel height (cm).
Citrated whole blood was incubated with DiOC6 (0.5 µg ml^-1) (Sigma-Aldrich Co, St. Louis, MO, USA) and drawn through microfluidic channels by a programmable syringe pump (Legato 130, KD Scientific, USA). Time-lapse z-stack images of platelet deposition were captured in multiple track, resonant scanning mode, using a Nikon A1R confocal microscope system. Platelet deposition was recorded over time (2 frames per minute) for up to 20 minutes and quantified in ImageJ using a Z-projection of the acquired signal.
For experiments measuring rolling velocities, anti αllbβ3 antibody (abciximab; 20 µg ml^-1)-treated whole blood containing 0.5 µg ml^-1 DiOC6 was drawn over a collagen type III-coated surface. Where indicated, blood was incubated with 30 µM aspirin (Sigma Aldrich, USA) and 300 µM 2-MeSAMP (Sigma-Aldrich Co, St. Louis, MO, USA) prior to blood perfusion. 10 second video clips of rolling platelets were recorded in the green fluorescent channel using an Olympus IX81 microscope system. Platelet rolling velocities were calculated using Diatrack v3.04 large scale particle tracking software (Vallotton et al. Microsc Microanal. 2013 Apr;19(2):451-60).

[4] = tested on: VWF-GPIb binding (plasma VWF, isolated platelets); experiment: Ristocetin-induced platelet agglutination test (RIPA); format: cell-based, human
Method: Platelet-poor plasma (PPP; source of plasma VWF) was prepared by centrifugation of citrated whole blood at 300 × g for 10 min to obtain platelet rich plasma (PRP) and further centrifugation of the PRP fraction at 1700 × g for 7 min. Isolated platelets (3 × 10^8/ml) suspended in platelet wash buffer (4.3 mM K2HPO4, 4.3 mM Na2HPO4, 24.3 mM NaH2PO4, 113 mM NaCl, 5.5 mM D-glu cose, and 10 mM theophylline, pH 6.5) were centrifuged at 1500 × g for 7 min. The washed platelets were subsequently resuspended at the same concentration in modified Tyrode’s buffer (10 mM Hepes, 12 mM NaHCO3, 137 mM NaCl, 2.7 mM KCI and 5 mM glucose, pH 7.3) containing calcium (1 mM), magnesium (1 mM) and apyrase (0.02 U ml^-1) (ADPase activity). Isolated platelets (150, 300 µL at 3 × 10^8/ml) and platelet poor plasma (50 µl) were incubated with 2, 2.5, 4, 5, 40 and 80 µg ml^-1 scFv A1 and the corresponding concentration of control scFv, or Tyrode’s buffer was used to neutralise any other aggregation mechanisms beside the VWF A1-GPlbα interaction. Platelet agglutination in response to 0.75 mg mL^-1 ristocetin (Helena Biosciences, Gateshead, UK) and in the presence of the αIIbβ3 (GPIIb/IIIa) blocker Integrilin was performed for 10 min on an AggRam system from Helena Laboratories, USA

[5] = target: T3, VWF-full length (Homo sapiens, UniProt P04275); experiment: BLItz bio-layer interferometry, immobilized full length VWF; conditions: BLItz binding assay
T3 construct: coated with purified full length VWF or isolated A1 domain
Method: Bio-layer Interferometry was performed on a BIItz System (Pall Forte Bio, USA). Protein-A biosensors were hydrated for 30 minutes in PBS-Tween (0.05%) and loaded with VWF-A1 domain (130 µg ml^-1). Remaining binding sites were blocked by exposure to a polyclonal mouse IgG for 5 min. Sequential adhesion of scFv-A1 at 0, 20, 40 and 100 µg ml^-1 was monitored for 5 min per concentration. Real time visualisation of binding interactions between scFv A1 and full length VWF/A1 domain was performed using the BLItz Pro software. Traces were manually baseline aligned and corrected for control binding (0 µg ml^-1 scFv-A1).

B1: scFv A1: single chain antibody combining variable heavy chain of mAb CR1 with variable light chain of mAb CR2; VH SEQ ID NO: 11, VL SEQ ID NO: 10 (antibody, V domains shown)
VH: QVQLQQPGAELVRPGASVKLSCKASGYSFTNYWMSWVKQRPGQGLEWIGMIHPSDSDTRLNQKFKDKATLTVDKSSSTAYMQLSSPTSEDSAGLLLCKKFEGWLPVLLGPRHHSHSLLS
VL: DIELTQSPASLAVSLGQSYRASCKSVSTSGYSYMHWNQQKPGQPPRLLIYLVSNLESGVPARFSGSGSGTDFTLNIHPVEEEDAATYYCQHIRELTRSEGDQAEINR
modifications: scFv linker; Mouse
Binding to immobilized full length VWF [1]: did not bind | Complex formation with denatured VWF [2]: did not show any complex formation | Platelet adhesion ([3]; scFv A1 5 µg ml^-1, stenosis apex, control 3934±892, p=0.7932): 3805±783 platelets/mm^2 | Platelet-VWF adhesion ([3]; scFv A1 5 µg ml^-1, stenosis inlet, control 6187±1097, p=0.0013): 5158±1032 platelets/mm^2 | Platelet adhesion ([3]; scFv A1 5 µg ml^-1, stenosis outlet, control 5042±1167, p=0.07): 4475±1199 platelets/mm^2 | Platelet deposition ([3]; scFv A1 5 µg ml^-1, straight section, constant shear, control 2047±232, p=0.0195): 3096±690 platelets/mm^2 | Relative amount of VWF per platelet deposited on aggregates ([3]; scFv A1, areas of SRGs and constant shear): not reduced | Ristocetin-induced platelet agglutination ([4]; plasma VWF preincubated with scFv A1 and ristocetin prior to platelet binding): minor inhibitory effect | Ristocetin-induced agglutination of isolated platelets ([4]; scFv A1 up to 80 µg ml^-1, ristocetin 0.75 mg ml^-1, plasma VWF present): did not result in delayed or reduced agglutination | Binding to immobilized VWF-full length [5]: did not observe any binding
